Data published in the DeepSol protein solubility set.

Assay: soluble on expression in E. coli; label from the status in PepcDB or PDB records
With “YKEEDSTVSILPTSLPQIHRANMLAQGSPAASKISPLVTKKSKTRWHFGIRSRSYPLDVMGEIYIALKNLGAEWAKPSEEDLWTIKLRWKYDIGNKTNTNEKIPDLMKMVIQLFQIETNNYLVDFKFDGWESSYGDDTTVSNISEDEMSTFSAYPFLHLTTKLIMELAVNS” the “soluble on expression in E. coli” value was “soluble”. With “YKIEKEQRLGLIPQREGNYEKNKNVLESATVKINYYSSKATSGQAGAAASAAFAKNNNTSDNTQQNQTSSVEAKSVNVTKHSFVQALKKVGFSGSNPLHFNMKLGNSSLSANGVDYYNAVKQALTELG” the “soluble on expression in E. coli” value was “not soluble”. With “YPNASPLLGSSWGGLIHLYTATARNSYHLQIHKNGHVDGAPHQTIYSALMIRSEDAGFVVITGVMSRRYLCMDFRGNIFGSHYFDPENCRFQHQTLENGYDVYHSPQYHFLVSLGRAKRAFLPGMNPPPYSQFLSRRNEIPLIHFNTPIPRRHTR” the “soluble on expression in E. coli” value was “soluble”. For “YRENDPRLQLAFKLFLDGCTDKEVEQQTGINRRTFRRYRMKYGITNSLRHKND”, the “soluble on expression in E. coli” value was “not soluble”. With “YSVTVKWGKEKFEGVELNTDEPPMVFKAQLFALTGVQPARQKVMVKGGTLKDDDWGNIKMKNGMTVLMMGSADALPEEPSAKT” the “soluble on expression in E. coli” value was “soluble”.
